The values that follow come from PMC4411359.

The target in this assay is YFP-tagged CREB-binding protein (UniProt Q92793). Description: MST.
UniProt Q92793, sequence (Q92793 whole entry): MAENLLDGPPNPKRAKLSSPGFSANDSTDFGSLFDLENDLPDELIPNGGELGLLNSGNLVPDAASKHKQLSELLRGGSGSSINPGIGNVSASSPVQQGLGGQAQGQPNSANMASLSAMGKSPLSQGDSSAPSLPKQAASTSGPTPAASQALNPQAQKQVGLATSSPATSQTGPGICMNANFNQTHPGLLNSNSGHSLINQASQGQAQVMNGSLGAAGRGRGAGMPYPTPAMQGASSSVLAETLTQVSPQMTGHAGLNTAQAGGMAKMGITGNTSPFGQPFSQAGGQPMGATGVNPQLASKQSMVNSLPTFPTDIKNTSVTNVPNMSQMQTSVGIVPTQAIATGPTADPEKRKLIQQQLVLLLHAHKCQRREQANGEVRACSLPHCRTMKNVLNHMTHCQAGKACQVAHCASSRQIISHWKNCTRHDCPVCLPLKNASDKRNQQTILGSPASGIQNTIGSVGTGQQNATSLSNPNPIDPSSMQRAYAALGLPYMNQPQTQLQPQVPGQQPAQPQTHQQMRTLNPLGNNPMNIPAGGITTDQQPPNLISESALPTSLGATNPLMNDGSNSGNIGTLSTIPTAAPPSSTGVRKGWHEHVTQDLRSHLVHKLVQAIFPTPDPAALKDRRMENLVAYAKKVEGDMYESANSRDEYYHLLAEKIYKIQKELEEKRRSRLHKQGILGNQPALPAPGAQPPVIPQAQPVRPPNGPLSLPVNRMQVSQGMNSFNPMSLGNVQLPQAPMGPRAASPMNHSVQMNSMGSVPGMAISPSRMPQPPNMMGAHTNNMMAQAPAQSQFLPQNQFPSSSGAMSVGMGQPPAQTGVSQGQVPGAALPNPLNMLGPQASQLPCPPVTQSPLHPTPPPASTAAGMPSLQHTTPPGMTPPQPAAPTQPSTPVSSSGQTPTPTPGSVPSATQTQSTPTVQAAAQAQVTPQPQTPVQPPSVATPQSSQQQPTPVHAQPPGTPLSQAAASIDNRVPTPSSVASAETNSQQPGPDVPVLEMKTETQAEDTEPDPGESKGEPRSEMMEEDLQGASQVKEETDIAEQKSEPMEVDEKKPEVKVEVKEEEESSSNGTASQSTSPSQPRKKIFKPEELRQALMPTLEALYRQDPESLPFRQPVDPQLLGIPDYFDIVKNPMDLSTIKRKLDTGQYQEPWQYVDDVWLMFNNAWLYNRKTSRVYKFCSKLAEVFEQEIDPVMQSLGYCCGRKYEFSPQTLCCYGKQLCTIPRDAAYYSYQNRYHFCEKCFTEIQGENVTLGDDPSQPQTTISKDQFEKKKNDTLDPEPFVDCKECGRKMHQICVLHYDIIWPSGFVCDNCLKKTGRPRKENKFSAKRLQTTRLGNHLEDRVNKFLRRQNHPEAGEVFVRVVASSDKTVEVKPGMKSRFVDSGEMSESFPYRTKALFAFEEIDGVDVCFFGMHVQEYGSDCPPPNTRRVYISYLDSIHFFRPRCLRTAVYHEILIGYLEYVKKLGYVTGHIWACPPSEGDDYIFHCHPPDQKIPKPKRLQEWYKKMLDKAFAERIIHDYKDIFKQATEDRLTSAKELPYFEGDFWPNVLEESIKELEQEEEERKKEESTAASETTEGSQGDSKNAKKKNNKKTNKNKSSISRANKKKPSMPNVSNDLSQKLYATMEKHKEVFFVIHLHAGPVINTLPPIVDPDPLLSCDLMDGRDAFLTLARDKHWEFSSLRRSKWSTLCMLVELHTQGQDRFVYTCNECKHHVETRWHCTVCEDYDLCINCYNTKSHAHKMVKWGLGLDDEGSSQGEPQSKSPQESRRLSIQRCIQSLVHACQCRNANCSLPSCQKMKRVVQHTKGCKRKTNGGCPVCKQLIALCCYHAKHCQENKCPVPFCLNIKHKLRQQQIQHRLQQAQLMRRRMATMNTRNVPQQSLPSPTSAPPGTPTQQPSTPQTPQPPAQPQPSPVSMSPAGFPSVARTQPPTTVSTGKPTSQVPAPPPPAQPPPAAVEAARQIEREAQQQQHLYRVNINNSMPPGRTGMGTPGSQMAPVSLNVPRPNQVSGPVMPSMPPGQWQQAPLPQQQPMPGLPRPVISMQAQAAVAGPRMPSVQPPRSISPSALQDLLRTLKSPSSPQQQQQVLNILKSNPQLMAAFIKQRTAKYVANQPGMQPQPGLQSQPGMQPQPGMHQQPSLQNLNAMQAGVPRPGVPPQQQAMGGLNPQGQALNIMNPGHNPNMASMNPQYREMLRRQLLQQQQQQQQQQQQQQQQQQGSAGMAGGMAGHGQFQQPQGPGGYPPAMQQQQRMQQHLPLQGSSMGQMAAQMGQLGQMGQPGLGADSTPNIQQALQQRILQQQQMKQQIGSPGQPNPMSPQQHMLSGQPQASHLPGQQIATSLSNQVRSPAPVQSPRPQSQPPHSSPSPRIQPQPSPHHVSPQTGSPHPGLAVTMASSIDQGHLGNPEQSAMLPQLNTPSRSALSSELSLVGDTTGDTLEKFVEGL

For “HA-tagged human thymine DNA glycosylase P65A mutant (from UniProt Q13569 1-410) (enzyme)”, the fold decrease of affinity against wild-type HA-TDG was more than 3 fold.
